Measured values from paper PMC8391968.

Target: transcriptional enhancer associated domain (TEAD) transcription factor (human (endogenous in A375)) (UniProt P28347)
Sequence of UniProt P28347 (P28347 whole entry, the tested form may be a part): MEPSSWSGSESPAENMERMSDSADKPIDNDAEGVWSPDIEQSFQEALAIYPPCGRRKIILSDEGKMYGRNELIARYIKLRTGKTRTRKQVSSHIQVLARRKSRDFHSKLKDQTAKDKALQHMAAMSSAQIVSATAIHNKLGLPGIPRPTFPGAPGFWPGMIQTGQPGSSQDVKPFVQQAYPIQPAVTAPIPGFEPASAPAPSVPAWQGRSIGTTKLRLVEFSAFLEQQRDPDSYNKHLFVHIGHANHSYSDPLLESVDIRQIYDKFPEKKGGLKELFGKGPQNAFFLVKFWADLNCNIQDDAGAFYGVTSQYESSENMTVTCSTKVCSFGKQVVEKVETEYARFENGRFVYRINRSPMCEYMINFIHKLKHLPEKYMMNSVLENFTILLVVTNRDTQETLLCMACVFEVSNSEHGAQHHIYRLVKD

yes-associated protein (YAP) (from UniProt P46937 1-504) (natural protein)
TEAD luciferase reporter (8xGTIIC) in A375 TEAD luciferase-stable melanoma cells, decrease of luciferase expression with the small molecule BY03 at 10 nM to 10 μM: 75% | TEAD-dependent luciferase reporter (8xGTIIC) in HEK293T cells with ectopic expression of YAP-S127A, decrease of luciferase expression with the small molecule BY03 at 20 μM: 68%
